Experimental data as given in article doi:10.1101/2021.03.29.437529.

What was measured:
[1] = biological target: PniDAH7PS, the C-terminal CM-linked 3-deoxy-D-arabino-heptulosonate 7-phosphate synthase (DAH7PS) from Prevotella nigrescens, wild type (Prevotella nigrescens); experiment: SEC-SAXS
[2] = biological target: PniDAH7PS^Δ5AA, a truncated PniDAH7PS variant with removal of C327-T331 residues (Prevotella nigrescens); experiment: SEC-SAXS

Row | stoichiometry N [1] | stoichiometry N [2] | Substance
1 | 2 | – | PniDAH7PS, the C-terminal CM-linked 3-deoxy-D-arabino-heptulosonate 7-phosphate synthase (DAH7PS) from Prevotella nigrescens, wild type (enzyme)
2 | – | 2 | PniDAH7PS^Δ5AA, a truncated PniDAH7PS variant with removal of C327-T331 residues (enzyme)
